Patent US20190338269

B1: factor VIIa/tissue factor (TF) complex (protein)
chain 1: ANAFLEELRPGSLERECKEEQCSFEEAREIFKDAERTKLFWISYSDGDQCASSPCQNGGSCKDQLQSYICFCLPAFEGRNCETHKDDQLICVNENGGCEQYCSDHTGTKRSCRCHEGYSLLADGVSCTPTVEYPCGKIPILEKRNASKPQGRIVGGKVCPKGECPWQVLLLVNGAQLCGGTLINTIWVVSAAHCFDKIKNWRNLIAVLGEHDLSEHDGDEQSRRVAQVIIPSTYVPGTTNHDIALLRLHQPVVLTDHVVPLCLPERTFSERTLAFVRFSLVSGWGQLLDRGATALELMVLNVPRLMTQDCLQQSRKVGDSPNITEYMFCAGYSDGSKDSCKGDSGGPHATHYRGTWYLTGIVSWGQGCATVGHFGVYTRVSQYIEWLQKLMRSEPRPGVLLRAPFP
chain 2: SGTTNTVAAYNLTWKSTNFKTILEWEPKPVNQVYTVQISTKSGDWKSKCFYTTDTECDLTDEIVKDVKQTYLARVFSYPAGNVESTGSAGEPLYENSPEFTPYLETNLGQPTIQSFEQVGTKVNVTVEDERTLVRRNNTFLSLRDVFGKDLIYTLYYWKSSSSGKKTAKTNTNEFLIDVDKGENYCFSVQAVIPSRTVNRKSTDSPVECMGQEKGEFREIFYIIGAVVFVVIILVIILAISLHKCRKAGVGQSWKENSPLNVS

Assays:
[1] = molecular target: plasma factor X (UniProt P00742)
[2] = molecular target: plasma factor X, P00742
Sequence of plasma factor X, P00742 (P00742 whole entry, looked up): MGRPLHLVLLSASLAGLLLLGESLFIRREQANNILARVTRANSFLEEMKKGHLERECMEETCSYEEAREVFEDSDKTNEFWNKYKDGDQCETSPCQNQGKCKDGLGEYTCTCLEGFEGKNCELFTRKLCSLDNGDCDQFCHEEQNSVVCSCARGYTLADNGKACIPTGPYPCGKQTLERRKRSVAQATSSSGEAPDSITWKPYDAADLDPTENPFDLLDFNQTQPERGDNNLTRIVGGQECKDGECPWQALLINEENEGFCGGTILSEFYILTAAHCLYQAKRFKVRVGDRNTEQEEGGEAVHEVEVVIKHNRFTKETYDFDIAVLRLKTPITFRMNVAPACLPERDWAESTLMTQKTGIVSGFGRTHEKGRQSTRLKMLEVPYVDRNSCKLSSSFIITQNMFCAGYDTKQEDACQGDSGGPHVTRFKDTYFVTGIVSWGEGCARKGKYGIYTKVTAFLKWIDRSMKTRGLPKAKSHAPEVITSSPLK

Sequence of plasma factor X (P00742 whole entry, looked up): as above

| Molecule | appearance of FXa activity after incubation with thrombin (100 nM FX / 10 nM IIa, up to 8 h) [1] | FXa generated after incubation with FVIIa/TF (rate of hydrolysis of PNAPEP substrate) [2] |
| --- | --- | --- |
| thrombin | did not result in the appearance of FXa activity |  |
| B1 |  | the already activated plasma FX and the plasma FX treated with the FVIIa/FT both gave a positive signal of the same order of magnitude |
